The nanobody polyreactivity screen of Harvey et al. (2022)

Test: yeast display, Sf9 membrane polyspecificity reagent, FACS + sequencing; frameworks hold sequencing errors
Outline: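 In a synthetic yeast display library (Saccharomyces cerevisiae BJ5465), nanobody expression was induced with galactose for 36–48 hours. FACS gates were set low and high (top ~1%) using anti-HA fluorescence for expression and streptavidin fluorescence for binding of the Sf9 membrane reagent. Each polyreactivity label is drawn from the gate of origin.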

| Sequence | polyreactivity (PSR sort gate) |
| --- | --- |
| QVQLVESGGGLGQAGGSLRLRCAASGSTFQYYAMGWYRQAPGKERELVAAITHSGTRTYYADSVKGRFTISRDNAKNTVYLQMNSLKPVDTAVYYCAARGYGKYDYWGQGTQVTVSS | high polyreactivity |
| QVQLVESGGGLGQAGGSLRLSCAASGFTFGNYAMGWYRQAPGKERELVAVISYSTGSTNYADSVKGRFTISRDNAKNTVYLQMNSLKPEDTAVYYCAKRYRSYYQGYGYWGQGTQVTVSS | high polyreactivity |
| QVQLVESGGGLGQAGGSLRLSCAASGFTFYAYVMGWYRQAPGKESELVAAISGSGSSTYYADSVKGRFTISRDNAKNTVDLEMNSLKPEDTAVYYCGAPQLYQYGGFGYWGQGTQVTVSS | high polyreactivity |
| QVQLVESGGGLGQAGGSLRLSCAASGRIFDVYAMGWYRQAPGKERELVATISSSGGATYYADSVKGRFTISRDNAKYTVYLQMNSLKPEDTAVYYCATTYRPTFRRHYNYWGQGTQVTVSS | low polyreactivity |
| QVQLVESGGGLGQAGGSLRLSCAASGRIFDYYAMGWYRQAPGKERELVATITSGSRTYYADSVKGRFTISRDNAKNTVYLQMNSLNPEDTAVYSCAAVKRSYYKGEYNAYDYWGQGTQVTVSS | high polyreactivity |
| QVQLVESGGGLGQAGGSLRLSCAASGRIFRDYAMGWYRQAPGKERQLVAAISWSGGSSYYADSVKGRFTISRDNAKNTVDLQMNSLKQEDTAVYYCAVEYYGGDSYRYDYWGQGTQVTVSS | low polyreactivity |
| QVQLVESGGGLGQAGGSLRLSCAASGRIFSYNSMGWYRPATGKERELVAAISTSGGSTYYADSVKGRFTISRDYAKNTVYLQLISLKPEDTAVYYCNARAPFSSAQPTFLIDDGYHWGQGTQETVSS | low polyreactivity |
| QVQLVESGGGLGQAGGSLRLSCAASGRTFLFNAMGWYRQAPGKDRELVAAISSGGGSTYYADSVKGRFTISRDNAKNTDYLEMNSLKPEDTAVYFCAAYPYYYRYNYWGQGTQVTVSS | high polyreactivity |
| QVQLVESGGGLGQAGGSLRLSCAASGRTFPIYVMGWYRQAPGKERELVASISASGVRTYFADSVKGRFTISRDNAKNTVYLQMNSLKPEDTAVYYCATQVRRWYSARSPNVRFDYWGQGTQVTVSS | high polyreactivity |
| QVQLVESGGGLGQAGGSLRLSCAASGRTFTGYAMGWYRQAPGKERELVATISRSGGTTSYADSVKGRFTISRDNAKNTVYVQMNSLKPVDTAVYYCAADRRSRPYYYWGQGTQVTVSS | high polyreactivity |
| QVQLVESGGGLGQAGGSLRLSCAASGSIFYRYAMGWYRQAPGKERELVAAISSTGSTYYADSVKGRFTISRDHAKNTVYLEMNSLTPEDTAVYYGAARQGYRSYRRYDYWGQGTQVTVSS | high polyreactivity |
| QVQLVESGGGLGQAGGSLRLSCAASGSTFQTKAMGWYRQAPGKERELVAAINSGGGTNYADSVKGRFTISRDNAKNTVYLQMNSLKPEDTAVYYCATDVLPRKYVSDYPSGAYDYWGQGTQVTVSS | low polyreactivity |
| QVQLVESGGGLGQAGGSLSLTCAASGSIFARNAMGWYRQAPGKERELVAAISTGGGSTYYADSVKGRFTISRDNAQNTVYLQMNSLKPEETEVYYCAAVGRSYYGHDYWGQGTQVTVSS | low polyreactivity |
| QVQLVESGGGLGQAGVSLRLSCAASGRIFYFNAMGWYRQAPGKEREMVAANSWSGGSTYYADSVKGRFTISRDNAKNTVYLQMNSLKPEDTAVYYCATDSYRQGDYYLGRVDYWGQGTQVTVSS | low polyreactivity |
| QVQLVESGGGLLHAGGSLRLSCAASGSTFILYTMGWYRQAPGKERELVAAISRSSGGTYYADSVKGRFTISRDTAKNTVYLQMNSLKTEDTAVYYCAARSRGAKYDYWGQGTQVTVSS | high polyreactivity |
| QVQLVESGGGLLQAGGSLRKSCAASGFTFDENSMGGYRQAPAINYSGASTYYAVSVKGRFTISRDNAKNTVYLQMNSLKPEDTAVYYCAAEVVAQMIYWGQGTQVTVSS | low polyreactivity |
| QVQLVESGGGLLQAGGSLRLSCAASGFIFRGYNMGWYRQAPGKERELVAAITTTSSTYYADSVKGRFTISRDNAKNTVYLQMNSLKPEDTAVYYCAALFYRYGYLYNYWGQGTQVTVSS | high polyreactivity |
| QVQLVESGGGLLQAGGSLRLSCAASGFNFGRYAMGWYRQAPGKERELVATISRSGGSTYYADSVKGRFTISRDNSKNTVFLQMNSLKPEDTAVYYCNALILPTKMGYWGQGTQVTVSS | low polyreactivity |
| QVQLVESGGGLLQAGGSLRLSCAASGFTIVCYAMGWYRQAPGKERELVAAISSGGSTYYADSVKGRFTISRDNAKNTVFLLMNSLKPEDTAVYYCAADREYYDEYAGYEYWGQGTQVTVSS | low polyreactivity |
| QVQLVESGGGLLQAGGSLRLSCAASGIIFHYNAMGWYRQAPWKQRELVAAITSTDNTNYADSVKGRFTISRDNAKNTVYLQMNSLIAEATAVYYCNASVGRDSAYDYWGQGTQVTVSS | low polyreactivity |
| QVQLVESGGGLLQAGGSLRLSCAASGIIYRPYAMGWYRQAPGKERELVAAITGSGVSTYYADSVKGRFTISRDNAKNTVYLQMNSLKPEDTAVYYCAKRYNRGYHRYDSWGQGTQVTVSS | low polyreactivity |
| QVQLVESGGGLLQAGGSLRLSCAASGRIFGQYAMGWYRQAPGKEREFVAGISTTGGSTYYADSVKGRFTISRDNAKNTVYLQMNSLKPEDTAVYYCAVRINWSRWYHYYTYNYWGQGTQVTGSS | high polyreactivity |

| Sequence | polyreactivity (PSR sort gate) |
| --- | --- |
| QVQLVESGGGLLQAGGSLRLSCAASGRIFTLYDMGWYRQAPGKERELDAAISNSAGSTYYADSVKGRFTISLDNAKNTVYLQMNSLKTEDTAGYYCARSFSYWGYRSVYYWGQGTQVTVSS | high polyreactivity |
| QVQLVESGGGLLQAGGSLRLSCAASGRIFVHYVMGWYRQAPGKERELVAAINVSGGGTYYADSVKGRFTISRDNAKNTVYLQMNCLKPEDTAVFYCAAGTTQDWPFSSRSYFGHDSWGQGTQVTVSS | low polyreactivity |
| QVQLVESGGGLLQAGGSLRLSCAASGRTFYKNAMGWYRHAPRKERELVAAITSGGSTNYADSVKGRFTISRDNAKNSVYLQMNSLKSEDTAVSACAAQLFPYYRSRYSYINNYDYSGQGTQVTVSS | high polyreactivity |
| QVQLVESGGGLLQAGGSLRLSCAASGRTLVSYAMGWYRQAPGKERELVATISWSGGSTYYADSVKGRFTISRDTAKNTVYLQIYSLKPEDTAGYDCNRSLTGYDELGYPVPYTYDYWGQGTQVTVSS | low polyreactivity |
| QVQLVESGGGLLQAGGSLRLSCAASGSIFERNAIGWYRQAPGKERELVAVITRSGGSTYYADSVKGRFTISRDNAKNTVYLQMNSLKREDTAVYYCNARTAYFYGLDYWGQGTQVTVSS | high polyreactivity |
| QVQLVESGGGLLQAGGSLRLSCAASGSIFLYYAMGWYRQAPGKERELVAGISRGGGTTYYADSVKGRFTISRDNAKNTVYLQMNSLKPEDTAFYYCATVFWRSKHEYWGQGTQVTVSW | high polyreactivity |
| QVQLVESGGGLLQAGGSLRLSCAASGSISAQYALGWYRQAPGKERELVAAIDFSGGSTYYADSVKGRFTISRDNAKNTVYLQRNSLKPEDTAVYYCAARGDGDPSTDITLVEYDYWGQGTQVTVSS | low polyreactivity |
| QVQLVESGGGLLQAGGSLRLSCAASGSTFDTYDMGWYRQAPGKERELVAARNSGGDTNYADSVKGRFTISRDNAKNTVYLQMNSLKPEDTAVYYCAVVTYSYPNWYGYWGPGTQVTVSS | high polyreactivity |
| QVQLVESGGGLLQAGGSLRLSCAATGITFDRYAMGWYRQAPGKERELVAAITSGGRTYYADSVKGRFTISRDNAKNTVYLQMNSLKPEDTAVYYCNATRGQYVGRYYYWGQGTQVTVSS | high polyreactivity |
| QVQLVESGGGLLQAGGSLRLSCADSGYTFRAYALGWYRQAPGKERELVAAISRGGSTNYADSVKGRFTISRDNAKNTVYLQMYSLKPEDTAVYYCNTAYIVWYSSSYGAYYSGAFDYWGQGTLVTVSS | high polyreactivity |
| QVQLVESGGGLLQAGGSLRLSCSASGSTFDDYAMGWYRQAPGKERELVAAIRWSGGSTYYADSVKGRFTISRDNAKNTVYLQMKSLKPEDTAVYYCNADGRRGRYDYWGQGTQVTVSS | low polyreactivity |
| QVQLVESGGGLLQAGGSLRLSFAASGSIVGPYGRGWYRQAPGKERELVAAISTVGGSTYYADSVKGRFTISRDNAKNTVYLQMNSLTPEDTAGYYCAKVPRYIELSRQATHSYDYWGHGTQVTVSS | low polyreactivity |
| QVQLVESGGGLLQAGGSLRLSSAASGIIFYAYAMGWYRQAPGKERELVAAITFSAVSTYYADSVKGRFTISRDNAKNTVYLQMNCLKPEDTAVYYCAAEAYKHGVWDYDYWGQGTQVTVSA | low polyreactivity |
| QVQLVESGGGLLQAGRSLRLSCAASGSTFRAYTMGWYRQAPGIERELVAAINSGGSTYYADSVKGRFTISRDNAKNTVYLQMNSLKAEDTAVYYCNRRFYRAVKYGYWGQGTQVTVSS | low polyreactivity |
| QVQLVESGGGLLQARGSLRLTCAASGIIFIKYAMGWYRQPPGKDRELVASSTSGGSTHYADSVKGRFTISRDNAKNTVYLQMNSLIPEETSVYYCNADILRHDAYFKDRYQAGSYWGLGTQVTVSS | low polyreactivity |
| QVQLVESGGGLVEAGGSLRLSCAASGINFWVNAMGWYRQAPGKERELVAAIRSDGSTKYADSVKGRFSSSRDNAKNTVYLQMNSLKPEDTAIYYCAKRDFSYPWLRDFYYWGQGTQVTVSS | low polyreactivity |
| QVQLVESGGGLVEAGGSLRLSCAASGRIFKYYAMGWYRQAPGKERELVAAISRGGSTYYADSVKGRFTISRDNAKNTVYLQMNSLKPEDTAVYFCAAVNGWRRVLRFDYWGQGTQVTVSS | high polyreactivity |
| QVQLVESGGGLVEAGGSLRLSCAASGRISQSNAMGWYRQAPGKESELVAAISWRGGSTYYADSVKGRFTISRDNAKNTVYLEMNSLKPEDTAVYYCGAKSWYAFYYRHPYDYWGQGTQVTVSS | high polyreactivity |
| QVQLVESGGGLVEAGGSLRLSCAASGRTFFKYTMGWYRQAPGKERELVSAITGSGASTYYADSVKGRFTISRDNAKNTVYLQMNSLKPEDTAVYYCAAVLTVKKGDKYGYWGQGTQVTVSS | high polyreactivity |
| QVQLVESGGGLVEAGGSLRLSCAASGSILIYVMGWYRQAPGKERDLFASITFSGGSTYYADSVKGRFTISRDNAKNSVYLQMYRLKPEVTAVYYCAAVPLWDYKFFYYLLYDYWGQGTQVTVSS | low polyreactivity |
| QVQLVESGGGLVEAGGSLRLSCAASGSTFRRYAMGWYRQAPVKERELVAAISTRGGSTYYADSVKGRFTISRDNAKNTVYLQMNSLKPEDTEVYYCAADPYYTLGYYYWGQGTQVTVSS | high polyreactivity |
